The values that follow come from patent publication US20090305973A1, “NOVEL PEPTIDE AND USE THEREOF” (priority 2006, published 2009).

Where no end group is shown, it is not given here.

Experiment [1] deals with Human foreskin fibroblast cells. As to the kind of experiment: Fibroblast proliferation, tritium-labeled thymidine incorporation. Format: cell-based. The note with it: for activity of inducing the proliferation of fibroblast cells: 100 nM, 12 hours, incorporated thymidine. The method, then: (§1) Human foreskin fibroblast cells (MC1232 obtained from MIT), U2OS cells (ATCC HTB-96) and bovine aorta endothelial cells (hereinafter, referred to as “BAECs”) were treated with the AIMP1 fragments cleaved by elastase 2 in Test Example <1-1>, and the effects of the AIMP1 fragments on the proliferation of the cells were examined.
(§2) Bovine aorta endothelial cells (BAECs) were isolated from bovine descending thoracic aorta and cultured in Dulbecco's modified Eagle's medium (DMEM) containing 20% FBS at 37° C. in a 5% CO2 atmosphere. The foreskin fibroblast cells and the U2OS cells were cultured in DMEM with 10% FBS and 1% antibiotic. Each of the cultured cell lines (5×10^3 cells) was cultivated in a 24-well dish for 12 hours and then subjected to serum-starved culture for 3 hours. Next, 100 nM of a full-length AIMP1 or fragments of AIMP1 cleaved with an enzyme were added to each well and cultivated for 12 hours. The control group was without the testing agents. After completion of the cultivation, tritium-labeled thymidine (1 μCi/well) was added to each well, and the cells were additionally cultured at 37° C. for 4 hours. The cultured cells were washed with PBS three times and fixed with 5% TCA for 10 minutes, followed by washing again with PBS three times. The cells were lysed with 0.5N NaOH, and the incorporated thymidine was quantified with a liquid scintillation counter.
In order to examine the fibroblast proliferation activities of the recombinant proteins constructed in Example 1, foreskin fibroblast cells were treated with each of the recombinant proteins in the same manner as in Test Example <1-2>, and the proliferation of the fibroblast cells was examined.
Whether the AIMP1-(6-46) fragment synthesized in Example <3-1> stimulates the proliferation of fibroblast cells was examined in the same manner as in Test Example <1-2>. Herein, the AIMP1-(6-46) fragment was used at various concentrations ([…]), and 100 nM of the full-length AIMP1 (AIMP1-(1-132)) was used as a control.
A general note: Incorporation of labelled thymidine or its analogues reports DNA synthesis.

The next experiment relates to C57BL/6 mice. The experiment can be described thus: In vivo wound healing (wound closure) of excised back skin wound. Conditions: 200 nM in PBS containing 20% glycerol, applied to wound twice a day until day 8, 0.5 cm-diameter back wound. As for the experimental part:
AIMP1-(14-34) (SEQ ID NO: 6) and AIMP1-(26-46) (SEQ ID NO: 7) fragments smaller than the AIMP1-(6-46) fragment synthesized in Example 3 were synthesized by a chemical synthetic method in Peptron (http://www.peptron.co.kr), and the wound healing-promoting activities thereof were analyzed in vivo. The analysis of the wound healing activities was performed using 8-week-old C57BL/6 mice. The mice were anesthetized with an intraperitoneal injection of 2.5% avertin (100 μl/10 g), and then the back of each animal was shaved, followed by disinfecting the back skin with 70% alcohol. The back skin was marked with a 0.5 cm-diameter circle, and a skin and panniculus carnosus muscle was removed with scissors to induce a wound. The wounds were left uncovered without a dressing. One wound was generated per mouse and treated with 200 nM of each of AIMP1-(14-34), AIMP1-(26-46) and AIMP1-(6-46) fragments in PBS (phosphate-buffered saline) containing 20% glycerol, twice a day at 12-hour intervals until day 8 after wounding. A control group was treated only with PBS containing 20% glycerol. Then, wound closure was monitored daily using the Image-pro Plus software and was calculated as the percentage of the initial wound area.

In experiment [2] the test system is bovine aorta endothelial cells. As to the kind of experiment: Endothelial cell proliferation, tritium-labeled thymidine incorporation. The format is cell-based. Conditions: 100 nM, 12 hours, BAECs, incorporated thymidine. The method, then:
as §1, §2

With “AIMP1-(1-46): recombinant deletion mutant of AIMP1, expressed as GST-tag fusion protein (MANNDAVLKRLEQKGAEADQIIEYLKQQVSLLKEKAILQATLREEK; also: GST tag fusion, end not given here; listed as Homo sapiens)”, the “activity of inducing the proliferation of fibroblast cells” value (“activity … of fibroblast cells” for short) in experiment [1] (foreskin fibroblast cells) is on record as “high proliferation-inducing activity”.

On to “AIMP1-(1-53): recombinant deletion mutant of AIMP1, expressed as GST-tag fusion protein (MANNDAVLKRLEQKGAEADQIIEYLKQQVSLLKEKAILQATLREEKKLRVENA; also: GST tag fusion, end not given here; listed as Homo sapiens)”, for which the “activity … of fibroblast cells” value in experiment [1] (foreskin fibroblast cells) is “high proliferation-inducing activity”.

In the case of “AIMP1-(14-34): 21-amino-acid fragment of AIMP1-(6-46), chemically synthesized (KGAEADQIIEYLKQQVSLLKE; PEPTIDE (1)..(21) AIMP1-(14-34); listed as Homo sapiens)”, the “activity of promoting wound healing (wound closure as percentage of the initial wound area)” value in the experiment on C57BL/6 mice is on record as “had the activities of promoting wound healing”.

Regarding “AIMP1-(26-46): 21-amino-acid fragment of AIMP1-(6-46), chemically synthesized (KQQVSLLKEKAILQATLREEK; PEPTIDE (1)..(21) AIMP1-(26-46); listed as Homo sapiens)”, the “activity of promoting wound healing (wound closure as percentage of the initial wound area)” value in the experiment on C57BL/6 mice was “had the activities of promoting wound healing”.

Turning to “NH2-AVLKRLEQKGAEADQIIEYLKQQVSLLKEKAILQATLREEK-COOH (H-AVLKRLEQKGAEADQIIEYLKQQVSLLKEKAILQATLREEK-OH; listed as Homo sapiens) [AIMP1-(6-46), peptide corresponding to amino acids 6-46 of AIMP1, expressed in E. coli]”, the “proliferation of fibroblast cells, dose dependence” value in experiment [1] (concentrations 0, 50, 100 and 200 mM (so in the source), foreskin fibroblast cells) was “induced the proliferation of fibroblast cells in a dose-dependent manner”. For the same molecule, the “fibroblast proliferation activity compared with full-length AIMP1 at the same concentration” value in experiment [1] (control 100 nM full-length AIMP1) is given as “almost similar to the full-length AIMP1”. For the same molecule, in the experiment on C57BL/6 mice, the “activity of promoting wound healing (wound closure as percentage of the initial wound area)” value is listed as “had the activities of promoting wound healing”.

B1: AIMP1-(101-192): recombinant deletion mutant of AIMP1, expressed as GST-tag fusion protein (protein, UniProt Q12904 101-192, looked up, fragment)
chain: AVTTVSSGTKEQIKGGTGDEKKAKEKIEKKGEKKEKKQQSIAGSADSKPIDVSRLDLRIGCIITARKHPDADSLYVEEVDVGEIAPRTVVSG
modifications: GST tag
notes: recombinant deletion mutant of AIMP1, expressed as GST-tag fusion protein
Take B1: the “activity … of fibroblast cells” value in experiment [1] (foreskin fibroblast cells) was “did not”.

B2: AIMP1-(6-192): recombinant deletion mutant of AIMP1, expressed as GST-tag fusion protein (protein, listed as Homo sapiens)
chain: AVLKRLEQKGAEADQIIEYLKQQVSLLKEKAILQATLREEKKLRVENAKLKKEIEELKQELIQAEIQNGVKQIAFPSGTPLHANSMVSENVIQSTAVTTVSSGTKEQIKGGTGDEKKAKEKIEKKGEKKEKKQQSIAGSADSKPIDVSRLDLRIGCIITARKHPDADSLYVEEVDVGEIAPRTVVSG
modifications: GST tag fusion; PEPTIDE (1)..(187) AIMP1-(6-192)
notes: as for B1
For B2, the “activity … of fibroblast cells” value in experiment [1] (foreskin fibroblast cells) was “high proliferation-inducing activity”.

B3: AIMP1-(114-192): recombinant deletion mutant of AIMP1, expressed as GST-tag fusion protein (protein, UniProt Q12904 114-192, looked up, fragment)
chain: KGGTGDEKKAKEKIEKKGEKKEKKQQSIAGSADSKPIDVSRLDLRIGCIITARKHPDADSLYVEEVDVGEIAPRTVVSG
modifications: GST tag
notes: as for B1
As for B3, in experiment [1] (foreskin fibroblast cells), the “activity … of fibroblast cells” value is recorded as “did not”.

B4: AIMP1-(30-192): recombinant deletion mutant of AIMP1, expressed as GST-tag fusion protein (protein, UniProt Q12904 30-192, looked up, fragment)
chain: SLLKEKAILQATLREEKKLRVENAKLKKEIEELKQELIQAEIQNGVKQIPFPSGTPLHANSMVSENVIQSTAVTTVSSGTKEQIKGGTGDEKKAKEKIEKKGEKKEKKQQSIAGSADSKPIDVSRLDLRIGCIITARKHPDADSLYVEEVDVGEIAPRTVVSG
modifications: GST tag
notes: as for B1
On to B4, for which, in experiment [1] (foreskin fibroblast cells), the “activity … of fibroblast cells” value is reported as “did not”.

B5: AIMP1-(47-192): recombinant deletion mutant of AIMP1, expressed as GST-tag fusion protein (protein, UniProt Q12904 47-192, looked up, fragment)
chain: KLRVENAKLKKEIEELKQELIQAEIQNGVKQIPFPSGTPLHANSMVSENVIQSTAVTTVSSGTKEQIKGGTGDEKKAKEKIEKKGEKKEKKQQSIAGSADSKPIDVSRLDLRIGCIITARKHPDADSLYVEEVDVGEIAPRTVVSG
modifications: GST tag
notes: as for B1
Turning to B5, the “activity … of fibroblast cells” value in experiment [1] (foreskin fibroblast cells) was “did not”.

B6: AIMP1-(1-192): recombinant deletion mutant of AIMP1, expressed as GST-tag fusion protein (protein, listed as Homo sapiens)
chain: MANNDAVLKRLEQKGAEADQIIEYLKQQVSLLKEKAILQATLREEKKLRVENAKLKKEIEELKQELIQAEIQNGVKQIAFPSGTPLHANSMVSENVIQSTAVTTVSSGTKEQIKGGTGDEKKAKEKIEKKGEKKEKKQQSIAGSADSKPIDVSRLDLRIGCIITARKHPDADSLYVEEVDVGEIAPRTVVSG
modifications: GST tag fusion; PEPTIDE (1)..(192) AIMP1-(1-192)
notes: as for B1
B6: the “activity … of fibroblast cells” value in experiment [1] (foreskin fibroblast cells) is on record as “high proliferation-inducing activity”.

B7: AIMP1-(193-312): recombinant deletion mutant of AIMP1, expressed as GST-tag fusion protein (protein, UniProt Q12904 193-312, looked up, fragment)
chain: LVNHVPLEQMQNRMVILLCNLKPAKMRGVLSQAMVMCASSPEKIEILAPPNGSVPGDRITFDAFPGEPDKELNPKKKIWEQIQPDLHTNDECVATYKGVPFEVKGKGVCRAQTMSNSGIK
modifications: GST tag
notes: as for B1
For B7, the “activity … of fibroblast cells” value in experiment [1] (foreskin fibroblast cells) is on record as “did not”.

B8: AIMP1-(1-312): full-length ARS-interacting multi-functional protein 1 consisting of 312 amino acids (protein, listed as Homo sapiens)
chain: MANNDAVLKRLEQKGAEADQIIEYLKQQVSLLKEKAILQATLREEKKLRVENAKLKKEIEELKQELIQAEIQNGVKQIAFPSGTPLHANSMVSENVIQSTAVTTVSSGTKEQIKGGTGDEKKAKEKIEKKGEKKEKKQQSIAGSADSKPIDVSRLDLRIGCIITARKHPDADSLYVEEVDVGEIAPRTVVSGLVNHVPLEQMQNRMVILLCNLKPAKMRGVLSQAMVMCASSPEKIEILAPPNGSVPGDRITFDAFPGEPDKELNPKKKIWEQIQPDLHTNDECVATYKGVPFEVKGKGVCRAQTMSNSGIK
Turning to B8, in experiment [1] (foreskin fibroblast cells), the “activity … of fibroblast cells” value is given as “high proliferation-inducing activity”. Also, in experiment [2], the “activity of inhibiting the proliferation of endothelial cells” value is “inhibiting the proliferation of endothelial cells”.

B9: AIMP1-(54-192): recombinant deletion mutant of AIMP1, expressed as GST-tag fusion protein (protein, UniProt Q12904 54-192, looked up, fragment)
chain: KLKKEIEELKQELIQAEIQNGVKQIPFPSGTPLHANSMVSENVIQSTAVTTVSSGTKEQIKGGTGDEKKAKEKIEKKGEKKEKKQQSIAGSADSKPIDVSRLDLRIGCIITARKHPDADSLYVEEVDVGEIAPRTVVSG
modifications: GST tag
notes: as for B1
For the molecule B9, the “activity … of fibroblast cells” value in experiment [1] (foreskin fibroblast cells) is “did not”.
